Laboratory results reported in publication PMC10944485, “Structure of full-length ERGIC-53 in complex with MCFD2 for cargo transport” (Nature Communications, 2024).
One block for each molecule: values may come before it.

Tests used:
[1] = target: ERGIC-53 ΔH34 mutant with a C-terminal FLAG (human) (UniProt P49257); test: cryo-EM structure; ERGIC-53 ΔH34-MCFD2 complex, 1.7 mg/ml
[2] = target: T1, full-length human ERGIC-53 with a C-terminal PA tag (human, UniProt P49257 31-510); test: SEC-MALS; Superdex 200 Increase 3.2/300; 20 mM Tris-HCl pH 7.5, 150 mM NaCl, 10 mM CaCl2, 0.02% GDN; samples 1.6-1.7 mg/ml; conjugate analysis (MALS-UV-RI); ERGIC-53 alone and its complex with MCFD2; details: both partners purified
T1 construct: ERGIC-53 (LMAN1), human, full length; cDNA subcloned from a HeLa cDNA library; Eluted from the beads with PA peptide; no step that removes the tag is described; Treated with 1 mM diamide before SEC; mixture of covalent (disulfide-linked) and noncovalent tetramers; The CRD is numbered from residue 31, so the signal peptide is probably cut off in the cells (surmised); also called LMAN1; P58
T1 sequence (looked up): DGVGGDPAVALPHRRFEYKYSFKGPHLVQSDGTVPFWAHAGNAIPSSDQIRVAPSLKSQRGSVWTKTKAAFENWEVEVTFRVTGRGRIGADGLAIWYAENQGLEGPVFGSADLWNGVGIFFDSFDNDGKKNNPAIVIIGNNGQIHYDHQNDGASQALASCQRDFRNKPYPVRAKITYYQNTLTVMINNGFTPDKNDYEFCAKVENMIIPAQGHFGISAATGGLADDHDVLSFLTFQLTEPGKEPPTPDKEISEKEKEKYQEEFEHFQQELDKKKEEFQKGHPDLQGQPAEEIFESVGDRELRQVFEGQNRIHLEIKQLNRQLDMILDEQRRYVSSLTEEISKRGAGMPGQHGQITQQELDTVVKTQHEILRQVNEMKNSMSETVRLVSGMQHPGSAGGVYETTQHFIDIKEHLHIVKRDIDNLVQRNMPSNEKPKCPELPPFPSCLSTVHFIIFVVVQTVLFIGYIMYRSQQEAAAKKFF

[3] = target: T2, full-length human ERGIC-53 with a C-terminal PA tag (human), P49257; test: cryo-EM structure; full-length ERGIC-53 with MCFD2, 4-5 mg/ml in GDN with 3 mM fluorinated Fos-Choline-8; head region forms A and B, four substates, and full-length map; details: remark: other sources report otherwise
T2 chain: T1 sequence (looked up)

[4] = target: T2, full-length human ERGIC-53 with a …; test: SEC-MALS; ERGIC-53 at weakly acidic Golgi pH (pH 6.5); details: remark: other sources report otherwise
[5] = target: T2, full-length human ERGIC-53 with a …; test: SEC-MALS; Superdex 200 Increase 3.2/300; 20 mM Tris-HCl pH 7.5, 150 mM NaCl, 10 mM CaCl2, 0.02% GDN; samples 1.6-1.7 mg/ml; conjugate analysis (MALS-UV-RI); ERGIC-53 alone and its complex with MCFD2; details: remark: other sources report otherwise

stoichiometry N [1]: 4
Molecule: ERGIC-53 ΔH34 mutant with a C-terminal FLAG (from UniProt P49257 31-510) (receptor)

stoichiometry N [2]: 1
B1: human MCFD2 lumen domain (residues 27-146) (domain or fragment, UniProt Q8NI22 27-146, looked up)
chain: EEPAASFSQPGSMGLDKNTVHDQEHIMEHLEGVINKPEAEMSPQELQLHYFKMHDYDGNNLLDGLELSTAITHVHKEEGSEQAPLMSEDELINIIDGVLRDDDKNNDGYIDYAEFAKSLQ
notes: MCFD2, human, lumen domain, residues 27-146, in pET15b; Thrombin cleavage of the pET15b His tag probably leaves a few vector residues at the N-terminus (surmised); also called multiple coagulation factor deficiency 2; source: E. coli BL21 (DE3), purified (Ni-NTA, MonoQ, thrombin cleavage, SEC); not shown: His tag, N-terminal, cleaved

stoichiometry N [3]: 4
stoichiometry N [4]: 4
stoichiometry N [5]: 4
B2: full-length human ERGIC-53 with a C-terminal PA tag, P49257 31-510 (receptor)
chain: T1 sequence (looked up)
